Source: publication PMC8534766
Starred links: 1 amine or outer side, 2 acyl side, 3 side chain; linkers in the order of their positions; H or OH if unused. Benzoyl(5-NH,2-NO2) = O=C(c1cc(N[*:1])ccc1[N+](=O)[O-])[*:2]

Target: SP-1, serine protease from Clostridium ramosum DSM1402 (Clostridium ramosum DSM1402)

KM of steady-state cleavage of the substrate by SP-1 (20 nM SP-1, 0.05-2 mM substrate, 20 mM Tris, 300 mM NaCl, 1 mM CaCl2, pH 8, room temperature; Michaelis-Menten fit): 0.000191 M
Binder: {ABZ}-IMAR-{Benzoyl(5-NH,2-NO2)-NH2} [ABZ-Ileu-Met-Ala-Arg-ANB-NH2]
